In PMC4669500, “Characterization of Pseudooxynicotine Amine Oxidase of Pseudomonas putida S16 that Is Crucial for Nicotine Degradation” (Scientific Reports, 2015):

Columns and labels:
[1] = target: T1, Pnao (pseudooxynicotine amine oxidase) (Pseudomonas putida, UniProt F8G0P1); assay: HPLC and UV-Vis of cofactor released by boiling purified protein; format: binding; conditions: co-purified cofactor, non-covalent (released by boiling)
T1 construct: full-length, His6-tagged (pET28a NcoI-XhoI, tag kept), expressed in E. coli C43(DE3), about 54 kDa; FAD-containing
T1 sequence (F8G0P1 whole entry): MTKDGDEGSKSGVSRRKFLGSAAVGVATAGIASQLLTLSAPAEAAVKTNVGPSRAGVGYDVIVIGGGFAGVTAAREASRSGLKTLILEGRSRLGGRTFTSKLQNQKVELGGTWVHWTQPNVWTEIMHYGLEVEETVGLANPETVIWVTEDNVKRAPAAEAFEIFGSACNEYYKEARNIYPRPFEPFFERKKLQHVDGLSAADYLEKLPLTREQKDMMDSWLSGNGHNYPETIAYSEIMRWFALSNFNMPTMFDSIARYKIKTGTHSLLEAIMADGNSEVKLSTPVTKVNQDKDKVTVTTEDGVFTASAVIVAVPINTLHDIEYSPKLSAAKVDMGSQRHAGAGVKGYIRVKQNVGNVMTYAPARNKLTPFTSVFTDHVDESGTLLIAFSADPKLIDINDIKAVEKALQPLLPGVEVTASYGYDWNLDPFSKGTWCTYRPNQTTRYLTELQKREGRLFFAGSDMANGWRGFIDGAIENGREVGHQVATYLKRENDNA

CNCCCC(=O)c1cccnc1 = assay: purified protein; format: biochemical, Pseudomonas putida; conditions: 30 °C, 25 mM sodium phosphate pH 8.5, O2 as oxidant

Cc1cc2nc3c(=O)[nH]c(=O)nc-3n(C[C@H](O)[C@H](O)[C@H](O)COP(=O)(O)OP(=O)(O)OC[C@H]3O[C@@H](n4cnc5c(N)ncnc54)[C@H](O)[C@@H]3O)c2cc1C [FAD, Flavin adenine dinucleotide]
HPLC and UV-Vis of cofactor released by boiling purified protein [1]: These results indicated that FAD was the cofactor associated with Pnao

Pnao (pseudooxynicotine amine oxidase) (Pseudomonas putida S16)
Km (CNCCCC(=O)c1cccnc1): 73 ± 18 µM | kcat (CNCCCC(=O)c1cccnc1): 0.790 ± 0.074 s⁻¹
